The values below come from paper PMC7108746.

The target of the assay is transmembrane Crumbs2 (CRB2TM) (mouse (endogenous in E15.5 spinal cord sections)) (UniProt Q80YA8).
Chain of UniProt Q80YA8 (Q80YA8 36-1282): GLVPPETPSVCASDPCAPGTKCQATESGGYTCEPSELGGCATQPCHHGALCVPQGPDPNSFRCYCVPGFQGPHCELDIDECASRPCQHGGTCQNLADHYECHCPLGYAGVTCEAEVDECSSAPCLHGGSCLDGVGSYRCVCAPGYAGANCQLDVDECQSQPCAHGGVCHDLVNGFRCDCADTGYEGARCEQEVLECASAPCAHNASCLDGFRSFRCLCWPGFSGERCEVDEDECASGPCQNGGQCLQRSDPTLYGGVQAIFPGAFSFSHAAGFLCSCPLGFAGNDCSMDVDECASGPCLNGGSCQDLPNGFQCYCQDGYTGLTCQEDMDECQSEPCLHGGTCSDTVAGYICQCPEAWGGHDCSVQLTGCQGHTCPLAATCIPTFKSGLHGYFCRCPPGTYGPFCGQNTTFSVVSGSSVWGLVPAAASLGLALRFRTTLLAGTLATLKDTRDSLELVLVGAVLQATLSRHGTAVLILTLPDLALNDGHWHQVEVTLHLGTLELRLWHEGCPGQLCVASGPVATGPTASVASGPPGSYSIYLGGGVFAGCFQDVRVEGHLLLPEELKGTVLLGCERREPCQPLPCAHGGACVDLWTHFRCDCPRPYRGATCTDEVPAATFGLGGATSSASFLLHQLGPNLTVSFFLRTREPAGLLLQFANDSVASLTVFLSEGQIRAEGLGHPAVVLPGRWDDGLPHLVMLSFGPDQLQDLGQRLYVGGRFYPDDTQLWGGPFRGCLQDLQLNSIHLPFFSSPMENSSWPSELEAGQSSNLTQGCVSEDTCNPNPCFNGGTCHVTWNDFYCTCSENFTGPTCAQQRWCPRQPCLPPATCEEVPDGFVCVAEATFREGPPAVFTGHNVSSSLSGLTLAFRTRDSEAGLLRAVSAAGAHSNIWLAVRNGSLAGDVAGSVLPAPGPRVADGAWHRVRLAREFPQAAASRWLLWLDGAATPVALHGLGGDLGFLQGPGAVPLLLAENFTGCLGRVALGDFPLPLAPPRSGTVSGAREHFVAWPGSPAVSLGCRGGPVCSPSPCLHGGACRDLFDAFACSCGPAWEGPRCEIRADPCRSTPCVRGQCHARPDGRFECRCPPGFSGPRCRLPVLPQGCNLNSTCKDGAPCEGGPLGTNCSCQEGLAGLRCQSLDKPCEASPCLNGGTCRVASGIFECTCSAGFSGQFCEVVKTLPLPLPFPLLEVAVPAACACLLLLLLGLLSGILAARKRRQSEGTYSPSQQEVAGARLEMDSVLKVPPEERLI

“secreted Crumbs2 (CRB2S), His-tagged (natural protein)” came in with an apically localised ZO-1 in MDCK cells seeded at high density and cultured with high concentrations of CRB2S (77% of cells in control medium) of 23%.
